Biological target: NIST mAb
Test: AUC

NIST mAb (antibody)
3%: amount of dimer (%), fit of 20 scans | amount of dimer (%), fit of 50 scans | amount of dimer (%), fit of 100 scans | amount of dimer (%), fit of 250 scans

Source: paper PMC9232890
